According to patent publication US20240293478A1:

What was measured:
[1] = target: IL-12 receptor on HEK-Blue IL-12 cells (UniProt P42701); test: cell-based or functional assay
[2] = target: mouse TGF-β1 (R&D systems) (mouse) (UniProt P04202); test: direct ELISA with mouse TGF-β1; concentrated supernatant of transfected HEK293T cells
[3] = target: mouse TGF-β1 (R&D systems) (mouse) (UniProt P04202); test: direct ELISA with mouse TGF-β1; supernatant of transfected HEK293T cells
[4] = target: recombinant murine CTLA-4-human IgG1 Fc chimera (R&D Systems) (mouse; human) (UniProt P09793); test: competitive ELISA; competitor mouse CD80 coated at 100 ng/ml, 10 ng/ml murine CTLA-4-human IgG1 Fc mixed with HEK293T supernatant, anti-human IgG1-HRP
[5] = target: recombinant murine CTLA-4-human IgG1 Fc chimera (R&D Systems) (mouse; human) (UniProt P09793); test: competitive ELISA; competitor mouse CD86 coated at 100 ng/ml, 10 ng/ml murine CTLA-4-human IgG1 Fc mixed with HEK293T supernatant, anti-human IgG1-HRP

Chain of IL-12 receptor on HEK-Blue IL-12 cells (Q99665 24-862, chain 2 of 2, other chains not shown): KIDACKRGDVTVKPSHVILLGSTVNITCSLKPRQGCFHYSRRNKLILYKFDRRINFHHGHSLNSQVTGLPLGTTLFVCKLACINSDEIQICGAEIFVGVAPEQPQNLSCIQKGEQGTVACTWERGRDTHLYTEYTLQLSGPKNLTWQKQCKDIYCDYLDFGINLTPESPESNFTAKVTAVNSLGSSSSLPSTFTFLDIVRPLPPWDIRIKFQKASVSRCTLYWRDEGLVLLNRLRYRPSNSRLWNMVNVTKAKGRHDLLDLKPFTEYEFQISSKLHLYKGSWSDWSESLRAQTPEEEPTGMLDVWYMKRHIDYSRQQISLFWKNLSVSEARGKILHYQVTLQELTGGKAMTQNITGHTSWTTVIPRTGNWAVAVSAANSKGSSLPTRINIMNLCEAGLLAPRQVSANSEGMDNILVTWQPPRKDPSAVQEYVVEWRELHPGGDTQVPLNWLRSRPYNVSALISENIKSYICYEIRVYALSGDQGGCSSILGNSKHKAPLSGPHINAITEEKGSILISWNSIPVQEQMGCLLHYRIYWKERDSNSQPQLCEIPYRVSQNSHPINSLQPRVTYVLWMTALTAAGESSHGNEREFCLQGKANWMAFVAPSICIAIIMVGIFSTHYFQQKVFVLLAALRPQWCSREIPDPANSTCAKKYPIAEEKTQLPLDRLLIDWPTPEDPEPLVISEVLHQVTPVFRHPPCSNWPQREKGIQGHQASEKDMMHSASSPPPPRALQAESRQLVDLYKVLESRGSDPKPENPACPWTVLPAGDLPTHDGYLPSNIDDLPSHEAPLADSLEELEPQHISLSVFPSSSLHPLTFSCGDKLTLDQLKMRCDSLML
Chain of mouse TGF-β1 (R&D systems) (mouse) (P04202 279-390 limits assumed): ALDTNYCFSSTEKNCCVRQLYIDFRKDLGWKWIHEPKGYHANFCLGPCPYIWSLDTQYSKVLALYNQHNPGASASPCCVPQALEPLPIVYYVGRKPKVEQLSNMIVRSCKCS
Chain of recombinant murine CTLA-4-human IgG1 Fc chimera (R&D Systems) (mouse; human) (P09793 36-162 limits assumed, change not shown): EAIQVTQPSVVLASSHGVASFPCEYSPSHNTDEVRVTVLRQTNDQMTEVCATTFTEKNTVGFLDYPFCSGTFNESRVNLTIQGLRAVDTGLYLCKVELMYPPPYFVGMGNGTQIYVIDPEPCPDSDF

Row | Substance | STAT4-SEAP (Absorbance/% GFP); transfected HEK cells co-cultured with HEK-Blue IL-12 cells (Absorbance/% GFP) [1] | further results
1 | Mouse membrane bound IL-12p70 (ligand) | 0.117 | –
2 | Soluble mouse TGFβ receptor II Fc (from UniProt Q62312 24-166) (Fc fusion) | – | Absorbance at 450 nm (absorbance (450 nm)) [2]: 1.52; Absorbance at 450 nm (absorbance (450 nm)) [3]: 1.51
3 | ipilimumab scFv antibody fragment | – | % CD80 Blockade Activity [4]: 7%; % CD86 Blockade Activity [5]: 32.5%
4 | muIL-12p70 (ligand) | 0.11 | –

Now from value to substance, other results behind:

Row | STAT4-SEAP (Absorbance/% GFP); transfected HEK cells co-cultured with HEK-Blue IL-12 cells (Absorbance/% GFP) [1] | Substance | further results
5 | 0.237 | Human membrane bound IL-12p70 (ligand) | –
6 | 0.11 | huIL-12p70 (ligand) | –
